In PMC8990217, “DUX4 is a multifunctional factor priming human embryonic genome activation” (iScience, 2022) one finds Kd data, which are given here for 2 molecules.

Test [1] concerns the target T1, human KIX domain of CBP (residues 587-673) with 36 extra N-terminal residues (human, UniProt Q92793 587-673, RED-tris-NTA dye bound non-covalently to the His tag).
T1 construct: synthetic codon-optimised gene in pET100/TOPO; construct 14.5 kDa; no cleavage is described; also called His-tagged KIX domain; source: E. coli BL21 DE3, purified (Histrap HP, Resource Q, Superdex 75); not shown: His6, N-terminal, kept
Nature of the test: MST; His-tagged KIX labelled with RED-tris-NTA, 20 nM; peptide varied; PBS-Tween (pH 7.4; 0.05% v/v Tween 20); Monolith NT. Particulars: both partners purified.

Test [2] concerns the target T1, human KIX domain of CBP (residues …). The test can be described thus: MST; as a1, KBM peptide binding to labelled KIX in the presence of the 9aaTAD peptide (its concentration not told). The settings on record: both partners purified.

T1 sequence (Q92793 587-673): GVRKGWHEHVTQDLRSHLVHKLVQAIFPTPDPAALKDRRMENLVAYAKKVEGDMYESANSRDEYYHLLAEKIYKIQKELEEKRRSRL

B1: DUX4 KBM peptide for binding analysis (peptide)
peptide: EEEYRALLEE
notes: source: synthetic peptide, bought: GenScript
By Kd is commonly meant the equilibrium constant for the complex coming apart. As for B1, the Kd in test [1] is approximately 600 nM; in test [2], approximately 1100 nM.

B2: DUX4 9aaTAD peptide for binding analysis (peptide)
peptide: CGLLLDELLASPEFLQQ
notes: as for B1
As to B2, the Kd in test [1] is approximately 200 nM.
